From the nanobody polyreactivity screen of Harvey et al. (2022)

Test: yeast display, Sf9 membrane polyspecificity reagent, FACS + sequencing; frameworks hold sequencing errors
Method in brief: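 After 36–48 hours of galactose induction, yeast (Saccharomyces cerevisiae BJ5465) displaying a synthetic nanobody library were stained at 4 °C for 1 hour with 10% biotinylated, detergent-solubilized Sf9 membrane reagent. Streptavidin microbeads enriched the stained cells before FACS sorting into low and high (top ~1%) gates on anti-HA and streptavidin fluorescence. Each clone's polyreactivity label reflects its gate of origin.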

QVQLVESGGGLVQAGGSLRLSCAASGFIFPTNVMGWYRQAPGKEREFVASITWRGGGTYYADSVKGRFTISRDNAKNTVYLPMNSLKPEDTAVYYCAAGRSWSSYWKYDYWGQGTQVTVSS
polyreactivity (PSR sort gate): low polyreactivity

QVQLVESGGGLVQAGGSLRLSCAASGSIFHVYAMGWYRQAPGKERELVAAIDRSGGSTYYADSVKGRFTISRDNAKNTVYLQMNSLKPEDTAVYYCAKDVLGGQITDGVGNDYWGQGTQVTVSS
polyreactivity (PSR sort gate): low polyreactivity

QVQHVESGGGLVQAGGRLRLSCAASGIIFQYYAMGSYRQAPGKERESVAGITYPGGSTYYADSVKGRFTISRDNAKNTVYLPKNSLQPEDTAVYFCNAVGVSARYWRQLPSYRYDYWGQGTQVTVSS
polyreactivity (PSR sort gate): low polyreactivity

QVQLVESGGGLVQARGSLRLSCAASGLTFTVDAMGWYRQAPGKEREFVAAISYSAGRTYYADSVKGRFTISRDNAKNTVYLQMNSLKPADTAVYYCAAATYYSIYDYWGQGTQVTVSS
polyreactivity (PSR sort gate): high polyreactivity

QVQLVESGGGLVQAGGTLRLSCAASGLIFVRYAMGWYRQAPGKERELVATITDGGSKYYADSVKGRFTISRDNAKNTVYLQMNSLKPEDTAVYYCNKDRVSVRYEYWGQGTQVTVSS
polyreactivity (PSR sort gate): low polyreactivity

QVHLVESGGGLVQAGGSLRLSCAASGRIFPKNGMGWYRQAPGTERDLVAAITSGTSTYYADSVKGRFTISRDNAKNTVYLQMNRLKPEDTAVYYCAARPTDGSGWPYRWTSDYWGQGTQVTVSS
polyreactivity (PSR sort gate): low polyreactivity

QVQLVESGGGLVQAGGSLRLSCPASGSTIPLYAMGWYRPAPGKERELVAAISRRGGRTYYADSVKGRFTISRDNAKNSVYLQMNSLKPEDTAVYYCATAQGSRVDYWGQGTQVTVSS
polyreactivity (PSR sort gate): high polyreactivity

QVQLVESGGGLVQAGGSLRLSCAASGGIFYAYAMGWYRQAPGKERELVAAISISDGDTYYADSVKGRFTISRDNAKNTVYLQMNSLKPEDTAVYYCAAEQEYDLREYDYWGQGTQVTVSS
polyreactivity (PSR sort gate): high polyreactivity

QVQLVESGAGLVQAGGSLRLSCAASGIILRYYALGWYRQAPGKERELVAAISSGGRTYYADSVKGRFTISRDNAKNPVNLLMNSLTPEDTEVYSCAADDTRGREEYDYWGQGTQVTGSS
polyreactivity (PSR sort gate): high polyreactivity

QVQLVESGGGLVQAGGSLRLSCAASGSTFDANDMGWYRQAPGKERELVAAITIGGGSTYYADSVKGRFTISRDNAKNTVYLQMNSLKPEDTAVYYCAKDDHTGVHTYPVDYWGQGTQVTVSS
polyreactivity (PSR sort gate): low polyreactivity

QVQLVESGGGLVQAGGSLRLSCAASGRTFHYYAMGWYRQAPGKERELVAAISRGGNTYYADSVKGRFTISRDNAKNTVYLQMNSLKPEDTAVYYCAKDNHFEAYRYDYWGQGTQVTVSS
polyreactivity (PSR sort gate): high polyreactivity

QVQLVESGGGLVQAGGSLRLSCAASGRIFAYYAMGWYRQAPGKERELVADITRSGARTYYADSVKGRFTISRDNANNTVYLQMNSLTPEDTAVYYCAAEGVRIGTRYDYWGQGTQVTVSS
polyreactivity (PSR sort gate): high polyreactivity

QVQLVESGGGLVQAGGSLRLSCAASGRILDVYVMGWYRQAPGKERELVAAISSGGSTYYADSVKGRFTISRDNAKNTVYLQMNSLKPEDTAVYYCAFYYWGQGTQVTVSS
polyreactivity (PSR sort gate): high polyreactivity

QVQLVESGGGLVQAGGSLRLSCAASGSIFVWYAMGWYRQAPGKERELVAAINWSGGRTYYADSVKGRFTISRDNAKNTVYLQMNSLKPEDTAVSYCNKVVPGYSAAKYDYWGQGTQVTVSS
polyreactivity (PSR sort gate): high polyreactivity

QVQLVESGGGLVQAGGSLRLSCAASGSIFAPNAMGWYRQAPRKEREFVAGITQSGTSTYADSVKGRFTISRDNAKNTVYLQMNSLKPEDTAVYYCAAEYYYGYWYGYIISYDYWGQGTQVTVSS
polyreactivity (PSR sort gate): high polyreactivity

QVQLVESGGGLVQAGGSLRLSCAASGFIFRQNAMGWSRQAPGKDRELVAAISNAGITNYADSVKGRFTISRDNAKITVYLQMNSLKPEDTAVYYCAAVEFRDSTFVVVSSPTSKSDYWGQGTQVTVSS
polyreactivity (PSR sort gate): low polyreactivity

QVQLVESGGALVQAGGSLRLSCAASGSTYDSYSMGWYRKAPGKERELVAAITRRGTRTYYADSVKGRFTISRDNAKNTVYLQMNSLKREDTAVYYCAADRGYRLQSYGYWGQGTQVTVSS
polyreactivity (PSR sort gate): high polyreactivity

QVQLVESGGGLVQAGGSLRLSCAASGSTFIFYTLGWYRQAPGKERELVAAITSNGGSTYYADSVKGRFTISRDTAKKTVYLQMNSLKPEDTAVDYCAKKGVGQYDWGQGTQVTVSS
polyreactivity (PSR sort gate): high polyreactivity

QVQLVESGGGLVQAGGSLRLSCAASGRIFDGNAMGWYRQAPGKERELVAAISSRGARTYYADSVKGRFTISRDNAKNTVYLQMNSLKPEDTAVYYCNKDLDSLSGAEYDYWGQGTQVTVSS
polyreactivity (PSR sort gate): high polyreactivity

QVQLVESGGGLVQAGGSLRLSCAASGSTFSRYAMGWYRQAPGKERELVAAITRSGGGTHYADSVKGRFTISRDNAKNTVYLQMNSLKPEDTAVYYCATDYTKYPTGYYYWGQGTQVTVSS
polyreactivity (PSR sort gate): low polyreactivity

QVQLVESGGGLVQAGGSLRLSCAASGRTFLRNAMGWYRQAPGKERELVAAISSGGGRTYYADSVKGRFTISRDNAKNTVYLQMNSLKPEDTAVYYCAALYQYLGGVYEGYYWGQGTQVTVSS
polyreactivity (PSR sort gate): high polyreactivity

QVQLVESGGGLVQAGGSLRLSCAASGRTFPGYAMGWYRQAPGKERELVAVISWSGGRTNYADSVKGRFTISRDNAKNTVYLQMNSLKPEDTAVYYCAARYHGHSNDYWGQGTQVTVSS
polyreactivity (PSR sort gate): low polyreactivity

QVQLVESGGGLVQAGGSLRLSCAASGSTVVIKAMGWYRQAPGKERELVARISSSGGRTYYADSVKGRFTISRDNAKNTVYLQMNSLKPEDTAVYYCAKRGYLFLRGSVRVGYNYWGQGTQVTVSS
polyreactivity (PSR sort gate): low polyreactivity

QVQLVESGGGLVQAGGSLRISCAASGRTFDSYAMGWYIQAPGKEREFVAAISYSGTSTYYADSVKGRFTISRDYAKNTVYLQMNSLIPEDTAVYYCAKEFIFRLWGQGTQVTVSS
polyreactivity (PSR sort gate): low polyreactivity

QVQLVESGGGLVQAGGSLRLSCAASGRIRRYYAMGWYRPAPGKEMELVAVITSSDGSTYYADSVKGRFTISRDNAKTTVYLQMNSLKPEDTAVDYCAAAPLWRLDSWSDPYRRYDYWGQGTQVTVSS
polyreactivity (PSR sort gate): low polyreactivity

QVQLVESGGGLVQAGGSLRLSCAASGITFGYYAMGWYRQAPGKERELVAAINWSGGSTYYADSVKGRFTISRDNAKNTVYLQMNSLKPEDTAVYYCNARPFNRYYREYDYWGQGTQVTVSS
polyreactivity (PSR sort gate): high polyreactivity

QVQLVESGGGLVQAGGSLRLSCAASGRTLYTNAMGWYRQAPGKERELVAAITSGASTNYADSVKGRFTISRDNAKNSVYLQMNSLKPEDTSVYYCASRTYHLWNARRYDYWGQGTQVTVSS
polyreactivity (PSR sort gate): low polyreactivity

QVQLVESGGGLVQTGGSLRVSCAASGLIFSRSAMGWYRQAPGKVRELVAAISSRGGSTYYADSVKGRFTISRDNAKNTVYLQMKSLIPEDTAVYFCDASRSYVHPVIGYGYWGQGTQVTVSS
polyreactivity (PSR sort gate): high polyreactivity

QVQLVESAGGLVQAGGSLRLSCAASGSIFDAYAMGWYRQAPGKERELVAAIIARGGSTYYADSVKGRFTISRDNAKTTVYLQMISLKPEDTAVSYCNRLSRVRRYIYDYWGQGTQVTVSS
polyreactivity (PSR sort gate): high polyreactivity

QVQLGESGGGLVQAGGSLRLSSAASGRTFGSNAMGWYRQAPGKERELVAASSSTVSTNYADSEKGRFTISRDNAKNTVYLQMNSLKPEDTAVYYCNVTRHYSYVSEYDYWGQGTQVTVSS
polyreactivity (PSR sort gate): low polyreactivity

QVQLQERAAWCRRAGSLRLSFAASGNISDYYFMGWYRQAPGKEREIFAAIAPGSNTFFADSVKGRFTISRDNATNTVYLQMNSLNPEDTAVYYCARQGTIYSYDIVYPRLDYWGQGTQVTVSS
polyreactivity (PSR sort gate): low polyreactivity

QVQLVESGGGLVQAGGSLRLSCAASGSTFTYYAMGWYRQAPGKEREFVATITYSGGSTYYADSVKGRFTISRDNAKNTVYLQMNSLKPEDTAVYYCAARVGRPSLVAAKYDYWGQGTQVTVSS
polyreactivity (PSR sort gate): high polyreactivity
